The text below walks through data of publication PMC5171805.

One test concerns the target MEDI1912_STT (human). Kind of test: SPR; Biacore 2000, HBS-EP buffer; 100 RU MEDI1912 or MEDI1912_STT IgG amine coupled to a C1 sensor chip; two-fold dilutions of βNGF (10 nM to 78 fM) at 50 µl/min, 300-3600 s dissociation; 1:1 Langmuir fit. A general note: Surface plasmon resonance follows binding to a sensor surface in real time, without labels.
In the next test the target is MEDI1912 (human). Described as above.
Test [1] concerns the target human NGF (construct not stated) (human) (UniProt P01138). As to the kind of experiment: not stated; Kd for the antigen; method and data in Supplementary Table 2.
Test [2] has as its target MEDI1912 IgG (human). As to the kind of experiment: native MS; nESI-IMS-MS, 1 mg/mL dialysed into 150 mM ammonium acetate, pH 6; dimer estimated with respect to the monomer ion intensity.
In test [3] the target is MEDI1912 IgG (human). Kind of test: AUC; sedimentation velocity, 1 mg/mL, 20 °C, 20 mM sodium succinate, 125 mM arginine, pH 6.0 or 150 mM ammonium acetate, pH 6; 28,000 rpm; SEDFIT.

By koff is commonly meant the first-order rate constant of dissociation. High values mean fast dissociation, low ones slow dissociation. The term kon denotes a measure of how fast the partners come together. A lower kon goes with slower complex formation. In the case of “recombinant βNGF (R&D Systems) (from UniProt P01138 122-241) (ligand)”, the koff in the test with MEDI1912_STT (human) fell in the range of 3.2e-05 to 0.00015 s⁻¹; with MEDI1912 (human), 3.3e-05 to 0.0002 s⁻¹. The on-rate (kon) with MEDI1912_STT (human) is 1.8e+07 M⁻¹ s⁻¹; with MEDI1912 (human) it was 2.1e+07 M⁻¹ s⁻¹.

The term Kd denotes the equilibrium constant for the complex coming apart. In general, stoichiometry N refers to a count of units in the complex or per binding partner. In test [1], MEDI1912 IgG (antibody) had a Kd of 1.6 to 9.8 pM. In the test with MEDI1912 IgG (human) [2], the dimer as percent of the monomer ion intensity is 11.4% and the stoichiometry N is under 4. For the same substance, in the test with MEDI1912 IgG (human) [3], the percent dimer was over 75% and the stoichiometry N is 2.
